Laboratory results published in the supplement of paper PMC9170038.

System: MS2 coat protein
Test: apparent KD of MS2 coat protein; designed switch direction (-1 OFF switch, 1 ON switch): -1; higher = weaker reporter binding
Summary of the method: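 Designed RNA switches with common flanks were transcribed on Illumina chips by stalled E. coli RNA polymerase and titrated with SNAP-549-labelled MS2 coat protein, from 0.7 or 1.5 nM doubling to 3 µM, in Tris-HCl pH 7.5 buffer with KCl, MgCl2, BSA, DTT, tRNA and Tween-20. Steps lasted 0.8–1.5 h (lowest) to 10–20 min (highest). Titrations ran without input, with 200 uM small-molecule ligand, or with an oligonucleotide input. Normalised cluster fluorescence was curve-fitted, and apparent KD is the per-design median over clusters.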

[1] = Eterna round: R95, input ligand: microRNA oligo, concentration not stated
[2] = input ligand: microRNA oligo, concentration not stated

For “GGAAGACAUGAGGAUCACCCAUGUAAGGAUAUCGGAGGUAAGGGAGGAAGGAGAUAGGCGAGAAGGUACAGGUG [JR_Exclu1_Sub094] (puzzle: Exclusion 1)”, the “apparent KD of MS2 coat protein” value (Eterna round: R95, input ligand: FMN 200 uM) was 47.2 nM, the “apparent KD of MS2 coat protein” value [1] was 35.5 nM and the “apparent KD of MS2 coat protein” value (Eterna round: R95, input ligand: none) was 53 nM.

For “GGAAUACAUGAGGAUCACCCAUGUAAGGAUAUGCUGAAUAACACGGAAUAAUCGUGCAGCAGAAGGUACAAAGG [Mat - Mod of my Eli Mod D45] (puzzle: Exclusion 1)”, the “apparent KD of MS2 coat protein” value [1] was 86.3 nM.

With “GGACAACAUGAGGAUCACCCAUGUCAGGAUAUGACGGCGUCGGCGAAAGCGGAGGCGGUCAGAAGGGACGGUAA [AK-MS2ROC-r4-exclusion1-10.1] (Eterna round: R97, puzzle: Exclusion 1)” the “apparent KD of MS2 coat protein” value (input ligand: FMN 200 uM) was 115 nM and the “apparent KD of MS2 coat protein” value (input ligand: none) was 51.9 nM.

“GGACUGAAGCUAGGAUAUCCCGUGUGAUCACGAGGAGAAGGAGCGCACGGGUAGUCAACAUGAGGAUCACCCAUGUACAGUCCA [Laditiqu] (Eterna round: R96, puzzle: Exclusion NG 1)” was tested, and the “apparent KD of MS2 coat protein” value (input ligand: FMN 200 uM) was 50.1 nM, the “apparent KD of MS2 coat protein” value [2] was 15.4 nM and the “apparent KD of MS2 coat protein” value (input ligand: none) was 20.6 nM.

With “GGAGAGGUAGGAUAUGGACCUUAGAACAUGAGGAUCACCCAUGUAGGACCACAUGAUUUGCGAGAAGGACCAGUCC [AK-MS2ROC-r4-exclusion5-7] (Eterna round: R97, puzzle: Exclusion 5)” the “apparent KD of MS2 coat protein” value (input ligand: FMN 200 uM) was 363 nM and the “apparent KD of MS2 coat protein” value (input ligand: none) was 655 nM.

For “GGAGCCUUAGGAUAUACAUGAGGAUCACCCAUGUGAUGUCGAAGCAAGGGUCUCCUAGGUAGAAGGAAGACAAU [Eternabot (L1) Solution 90] (Eterna round: R97, puzzle: Exclusion 3)”, the “apparent KD of MS2 coat protein” value (input ligand: FMN 200 uM) was 19.4 nM and the “apparent KD of MS2 coat protein” value (input ligand: none) was 17.9 nM.

For “GGAGUUAGAGAGGAUAUGGAGGAGAGGCCAAUUCCAGAAGGUUCAACAUGAGGAUCACCCAUGUAUUUUCCUCA [AK-MS2ROC-r4-exclusion6-2] (Eterna round: R97, puzzle: Exclusion 6)”, the “apparent KD of MS2 coat protein” value (input ligand: FMN 200 uM) was 25.6 nM and the “apparent KD of MS2 coat protein” value (input ligand: none) was 33.8 nM.

“GGAUAAAACCGAGGAUAUACGUAUCACUAACGAGUAGAAGGCGGACAUGAGGAUCACCCAUGUGAGUUCUCAAUAAGAAACACG [Prohibition 64 - Jieux - Exclusion NG 1] (Eterna round: R96, puzzle: Exclusion NG 1)” was tested, and the “apparent KD of MS2 coat protein” value (input ligand: FMN 200 uM) was 519 nM, the “apparent KD of MS2 coat protein” value [2] was 85.1 nM and the “apparent KD of MS2 coat protein” value (input ligand: none) was 174 nM.

For “GGAUAAAACUGAGGAUAUACGUAUCACUAACGAGUAGAAGGCAGACAUGAGGAUCACCCAUGUGAGUUCUCAAUAAGAAACACG [Prohibition 65 - Jieux - Exclusion NG 1] (Eterna round: R96, puzzle: Exclusion NG 1)”, the “apparent KD of MS2 coat protein” value (input ligand: FMN 200 uM) was 74.9 nM, the “apparent KD of MS2 coat protein” value [2] was 43.5 nM and the “apparent KD of MS2 coat protein” value (input ligand: none) was 51.2 nM.

In the case of “GGAUAUAAGGAAGGAUAUGAGCGCAACUGACGAUCAGAAGGUCCACAUGAGGAUCACCCAUGUGAUCUAUCAAUAUUAUACAUG [Prohibition 94 - Jieux - Exclusion NG 1] (Eterna round: R96, puzzle: Exclusion NG 1)”, the “apparent KD of MS2 coat protein” value (input ligand: FMN 200 uM) was 264 nM, the “apparent KD of MS2 coat protein” value [2] was 52.9 nM and the “apparent KD of MS2 coat protein” value (input ligand: none) was 115 nM.

With “GGAUAUAGGCGAGGAUAUACGCACCACUAACUAGUAGAAGGCGCACAUGAGGAUCACCCAUGUGAUUUCUCAAUAUGAUACACG [Prohibition 71 - Jieux - Exclusion NG 1] (Eterna round: R96, puzzle: Exclusion NG 1)” the “apparent KD of MS2 coat protein” value (input ligand: FMN 200 uM) was 218 nM, the “apparent KD of MS2 coat protein” value [2] was 107 nM and the “apparent KD of MS2 coat protein” value (input ligand: none) was 183 nM.

For “GGAUCGAAUGUGAGGAUAUGCUGGUCCUUGGAUCAGCAGAAGGCACAUGAGGAUCACCCAUGUGAUACCGAUCC [Eli bmx4 4.70] (Eterna round: R97, puzzle: Brourd's mod of Exclusion 4)”, the “apparent KD of MS2 coat protein” value (input ligand: FMN 200 uM) was 255 nM and the “apparent KD of MS2 coat protein” value (input ligand: none) was 381 nM.

“GGAUCGAGUGUGAGGAUAUGCUGGUCCUUGGAUCAGCAGAAGGCACAUGAGGAUCACCCAUGUGAAUACGGUCC [JL bmx4 3.15] (puzzle: Brourd's mod of Exclusion 4)” was tested, and the “apparent KD of MS2 coat protein” value [1] was 23.8 nM.
